From patent US7713932B2, “Calcitonin drug-oligomer conjugates, and uses thereof” (Biocon Limited, priority 2001, dated 2010)
Where “and” joins values, the source holds several entries; their conditions need not be identical. Identical values can stand only once. Blank lines part the entries; values can stand above or below the compound they belong to.

Columns and labels:
Assay type in all cases: in vitro ADME
Chymotrypsin = assay: Enzymatic stability: 0.5 U/mL chymotrypsin digest; settings: for % Remaining Following 0.5 U/mL Chymotrypsin Digest: replicate columns; for % Remaining, Control: Control tube (1 mM HCl, no enzyme)
Procedure: (§1) Compounds, supplied as lyophilized powders, are resuspended in 10 mM phosphate buffer pH 7.4 and then submitted for concentration determination by HPLC. The phosphate buffer is used to create a solution with a pH that is optimum for activity of each particular gut enzyme. Aliquots of the compound thus prepared are transferred to 1.7 mL microcentrifuge tubes and shaken in a 37° C. water bath for 15 minutes to allow compounds to equilibrate to temperature. After 15 minutes, 2 μL of the appropriate concentrated gut enzyme is added to each tube to achieve the final concentration desired. Chymotrypsin and trypsin are resuspended in 1 mM HCl. Also, as a control, compounds are treated with 2 μL of 1 mM HCl. Immediately following additions, 100 μL of sample is removed from the control tube and quenched with either 25 μL of chymotrypsin/trypsin quenching solution (1:11% TFA:Isopropanol). This sample will serve as T=0 min. A sampling procedure is repeated at various time intervals depending on the gut enzyme used. Chymotrypsin has 15, 30 and 60 minute samples. Trypsin has 30, 60, 120 and 180 minute samples. Once all points have been acquired, a final sample is removed from the control tube to make sure that observed degradation is not temperature or buffer related. The chymotrypsin and trypsin samples may be collected directly into HPLC vials. RP-HPLC (acetonitrile gradient) is used to determine AUC for each sample and % degradation is calculated based from the T=0 min control. The results are provided below in Tables 1 to 4.

Trypsin = assay: Enzymatic stability: 1 U/mL trypsin digest; settings: for % Remaining following 1 U/mL Trypsin Digest: Non-Formulated, replicate columns; for % Remaining, Control: Control tube (1 mM HCl, no enzyme)
Procedure: as §1

[1] = Enzymatic stability: 0.5 U/mL chymotrypsin digest; settings: chymotrypsin 0.5 U/mL, pH 7.4, Non-Formulated, replicate columns, read-out: % Remaining Following 0.5 U/mL Chymotrypsin Digest
Procedure: as §1

[2] = Enzymatic stability: 1 U/mL trypsin digest; settings: trypsin 1 U/mL, pH 7.4, Non-Formulated, replicate columns, read-out: % Remaining following 1 U/mL Trypsin Digest
Procedure: as §1

% Remaining Following 0.5 U/mL Chymotrypsin Digest (Chymotrypsin; Buffered Formulation, 15 min): 59% and 91% and 92% | % Remaining Following 0.5 U/mL Chymotrypsin Digest (Chymotrypsin; Buffered Formulation, 30 min): 54% and 86% and 87% | % Remaining Following 0.5 U/mL Chymotrypsin Digest (Chymotrypsin; Buffered Formulation, 60 min): 55% and 82% and 85% | % Remaining, Control (Chymotrypsin; Buffered Formulation, 60 min): 102% and 98% and 103% | % Remaining Following 0.5 U/mL Chymotrypsin Digest (Chymotrypsin; Non-Formulated, 15 min): 62% and 35% | % Remaining Following 0.5 U/mL Chymotrypsin Digest (Chymotrypsin; Non-Formulated, 30 min): 30% and 26% and 40% and 13% and 42% | % Remaining Following 0.5 U/mL Chymotrypsin Digest (Chymotrypsin; Non-Formulated, 60 min): 1.6% and 5% and 12% and 1% | % Remaining following 1 U/mL Trypsin Digest (Trypsin; 30 min): 80% and 50% | % Remaining following 1 U/mL Trypsin Digest (Trypsin; 60 min): 66% and 28% and 69% and 76% | % Remaining following 1 U/mL Trypsin Digest (Trypsin; 120 min): 44% and 7% and 46% and 59% | % Remaining following 1 U/mL Trypsin Digest (Trypsin; 180 min): 2% and 31% and 46%
Compound: CC(C)C[C@H](NC(=O)[C@H](CCCCN)NC(=O)CNC(=O)[C@H](CC(C)C)NC(=O)[C@@H](NC(=O)[C@@H]1CSSC[C@H](N)C(=O)N[C@@H](CO)C(=O)N[C@@H](CC(N)=O)C(=O)N[C@@H](CC(C)C)C(=O)N[C@@H](CO)C(=O)N[C@@H]([C@@H](C)O)C(=O)N1)C(C)C)C(=O)N[C@@H](CO)C(=O)N[C@@H](CCC(N)=O)C(=O)N[C@@H](CCC(=O)O)C(=O)N[C@@H](CC(C)C)C(=O)N[C@@H](Cc1c[nH]cn1)C(=O)N[C@@H](CCCCN)C(=O)N[C@@H](CC(C)C)C(=O)N[C@@H](CCC(N)=O)C(=O)N[C@H](C(=O)N[C@@H](Cc1ccc(O)cc1)C(=O)N1CCC[C@H]1C(=O)N[C@@H](CCCNC(=N)N)C(=O)N[C@H](C(=O)N[C@@H](CC(N)=O)C(=O)N[C@H](C(=O)NCC(=O)N[C@@H](CO)C(=O)NCC(=O)N[C@H](C(=O)N1CCC[C@H]1C(N)=O)[C@@H](C)O)[C@@H](C)O)[C@@H](C)O)[C@@H](C)O [Salmon Calcitonin]

Compound: COCCOCCOCCOCCOCCOCCOCCOCCCCCCCC(=O)NCCCC[C@H](NC(=O)CNC(=O)[C@H](CC(C)C)NC(=O)[C@@H](NC(=O)[C@@H]1CSSC[C@H](N)C(=O)N[C@@H](CO)C(=O)N[C@@H](CC(N)=O)C(=O)N[C@@H](CC(C)C)C(=O)N[C@@H](CO)C(=O)N[C@@H]([C@@H](C)O)C(=O)N1)C(C)C)C(=O)N[C@@H](CC(C)C)C(=O)N[C@@H](CO)C(=O)N[C@@H](CCC(N)=O)C(=O)N[C@@H](CCC(=O)O)C(=O)N[C@@H](CC(C)C)C(=O)N[C@@H](Cc1c[nH]cn1)C(=O)N[C@@H](CCCCNC(=O)CCCCCCCOCCOCCOCCOCCOCCOCCOCCOC)C(=O)N[C@@H](CC(C)C)C(=O)N[C@@H](CCC(N)=O)C(=O)N[C@H](C(=O)N[C@@H](Cc1ccc(O)cc1)C(=O)N1CCC[C@H]1C(=O)N[C@@H](CCCNC(=N)N)C(=O)N[C@H](C(=O)N[C@@H](CC(N)=O)C(=O)N[C@H](C(=O)NCC(=O)N[C@@H](CO)C(=O)NCC(=O)N[C@H](C(=O)N1CCC[C@H]1C(N)=O)[C@@H](C)O)[C@@H](C)O)[C@@H](C)O)[C@@H](C)O
remaining at 0.25 h ([1]; 15 min): 63% | remaining at 0.5 h ([1]; 30 min): 34% | % Remaining Following 0.5 U/mL Chymotrypsin Digest (Chymotrypsin; Buffered Formulation, 15 min): 88% (2×) and 86% | % Remaining Following 0.5 U/mL Chymotrypsin Digest (Chymotrypsin; Buffered Formulation, 30 min): 73% and 88% and 86% | % Remaining Following 0.5 U/mL Chymotrypsin Digest (Chymotrypsin; Buffered Formulation, 60 min): 61% and 69% and 84% | % Remaining, Control (Chymotrypsin; Buffered Formulation, 60 min): 116% and 104% and 101% | % Remaining, Control (Chymotrypsin; Non-Formulated, 60 min): 104% and 88% and 97% and 103% | remaining at 0.5 h ([2]; 30 min): 87% | remaining at 1 h ([2]; 60 min): 78% | remaining at 2 h ([2]; 120 min): 72% | remaining at 3 h ([2]; 180 min): 81% | % Remaining, Control (Trypsin; 60 min): 103% and 100% | % Remaining, Control (Trypsin; 120 min): 106% and 105% and 99% | % Remaining, Control (Trypsin; 180 min): 104% and 99%
